Data set [1] deals with T1, N. gonorrhoeae LptD (1-801)-3C-His10 and LptE (1-159)-AVI complex, biotinylated (Neisseria gonorrhoeae ATCC 700825 / FA …, UniProt Q5F651;Q5F9V6, biotin on the AVI tag (in vitro, BirA)).
T1 construct: signal peptide in the construct; LptD of N. gonorrhoeae (Zopf) Trevisan (ATCC 700825), residues 1-801; LptE of N. gonorrhoeae (Zopf) Trevisan (ATCC 700825), residues 1-159; Used for sybody generation and GCI; also called biotinylated NgLptDE; Biotinylated protein; source: E. coli SF100, purified as the NgLptDE complex, biotinylated in vitro with BirA, second SEC; monomeric peak; not shown: AVI, …
Briefly: grating-coupled interferometry (GCI); biotinylated NgLptDE immobilised on a 4PCP-S (streptavidin) chip at 600-700 pg/mm2; 20 °C; Tris 25 mM pH 7.5, NaCl 300 mM, DDM 0.1%; 8 concentrations (2-fold dilutions) in duplicate; 1:1 model. As to conditions: both partners purified.

Data set [2] concerns the molecule itself. Kind of data set: cryo-EM structure; subset of 80,140 dimeric particles of the NgLptDE-PMb51-PMb21 sample; map at 5.27 Å; pseudo-2-fold symmetry.

3 molecules from paper PMC8983717, “Cryo-EM structures of a LptDE transporter in complex with Pro-macrobodies offer insight into lipopolysaccharide translocation” (Nature Communications, 2022) can be followed below.

B1: sybody 51 (Sb51), synthetic nanobody against NgLptDE (VHH)
VHH: QVQLVESGGGSVQAGGSLRLSCAASGSISSITYLGWFRQAPGKEREGVAALATYYGHTYYADSVKGRFTVSLDNAKNTVYLQMNSLKPEDTALYYCAAAYSGIWTPLGVWATYEYWGQGTQVTV
notes: as the sybody moiety of m6 (PMb51), PDB 7OMM, up to the conserved C-terminus VTV
As for B1, the binding result in data set [1] was “binds”.

B2: Neisseria gonorrhoeae LptDE complex (NgLptDE), wild-type full-length LptD and LptE with a C-terminal hexa-histidine tag (complex, N. gonorrhoeae)
chain 1: ADTVAAEEADGRVAEGGAQGASESAQASDLTLGSTCLFCSNESGSPERTEAAVQGSGEASVPEDYTRIVADRMEGQSKVKVRAEGSVIIERDGAVLNTDWADYDQSGDTVTVGDRFALQQDGTLIRGETLTYNLDQQTGEAHNVRMETEQGGRRLQSVSRTAEMLGEGRYKLTETQFNTCSAGDAGWYVKAASVEADRGKGIGVAKHAAFVFGGVPLFYTPWADFPLDGNRKSGLLVPSVSAGSDGVSLSVPYYFNLAPNFDATFAPGIIGERGATFDGQIRYLRPDYSGQTDLTWLPHDKKSGRNNRYQAKWQHRHDISDTLQAGVDFNQVSDSGYYRDFYGGEEIAGNVNLNRRVWLDYGGRAAGGSLNAGLSVQKYQTLANQSGYKDEPYAIMPRLSADWHKNAGRAQIGVSAQFTRFSHDGRQDGSRLVVYPGIKWDFSNSWGYVRPKLGLHATYYSLDSFGGKASRSVGRVLPVVNIDGGTTFERNTRLFGGGVVQTIEPRLFYNYIPAKSQNDLPNFDSSESSFGYGQLFRENLYYGNDRINAANSLSTAVQSRILDGATGEERFRAGIGQKFYFKDDAVMLDGSVGKNPRSRSDWVAFASGGIGGRFTLDSSIHYNQNDKRAEHYAVGAGYRPAPGKVLNARYKYGRNEKIYLQADGSYFYDKLSQLDLSAQWPLTRNLSAVVRYNYGFEAKKPIEMLAGAEYKSSCGCWGAGVYAQRYVTGENTYKNAVFFSLQLKDLSSVGRNPAGRMDVAVPGYIPAHSLSAGRNKRP
chain 2: CGFHLKGADGISPPLTYRSWHIEGGQALQFPLETALYQASGRVDDAAGAQMTLRIDSVSQNKETYTVTRAAVINEYLLILTVEAQVLKRGEPVGKPMTVSVRRILDYADNEILGKQEEEETLWAEMRQDVAEQIVRRLTFLKAE
notes: LptD of N. gonorrhoeae, wild-type full length, UniProt Q5F651; LptE of N. gonorrhoeae, UniProt Q5F9V6; it is put on LptE here; Monomeric and dimeric SEC peaks were kept apart; the monomer was used for the complexes with PMbs; also called LptDE transporter; source: E. coli SF100, pBAD22A, purified from the outer-membrane fraction (LDAO, NiNTA, exchange to LMNG, SEC); also on E. coli SF100 cells …
As to B2, the “stoichiometry N” value in data set [2] amounted to 2.

B3: N. gonorrhoeae LptD (NgLptD), as the chain of the purified NgLptDE complex (natural protein, UniProt Q5F651 24-801, looked up)
chain: ADTVAAEEADGRVAEGGAQGASESAQASDLTLGSTCLFCSNESGSPERTEAAVQGSGEASVPEDYTRIVADRMEGQSKVKVRAEGSVIIERDGAVLNTDWADYDQSGDTVTVGDRFALQQDGTLIRGETLTYNLDQQTGEAHNVRMETEQGGRRLQSVSRTAEMLGEGRYKLTETQFNTCSAGDAGWYVKAASVEADRGKGIGVAKHAAFVFGGVPLFYTPWADFPLDGNRKSGLLVPSVSAGSDGVSLSVPYYFNLAPNFDATFAPGIIGERGATFDGQIRYLRPDYSGQTDLTWLPHDKKSGRNNRYQAKWQHRHDISDTLQAGVDFNQVSDSGYYRDFYGGEEIAGNVNLNRRVWLDYGGRAAGGSLNAGLSVQKYQTLANQSGYKDEPYAIMPRLSADWHKNAGRAQIGVSAQFTRFSHDGRQDGSRLVVYPGIKWDFSNSWGYVRPKLGLHATYYSLDSFGGKASRSVGRVLPVVNIDGGTTFERNTRLFGGGVVQTIEPRLFYNYIPAKSQNDLPNFDSSESSFGYGQLFRENLYYGNDRINAANSLSTAVQSRILDGATGEERFRAGIGQKFYFKDDAVMLDGSVGKNPRSRSDWVAFASGGIGGRFTLDSSIHYNQNDKRAEHYAVGAGYRPAPGKVLNARYKYGRNEKIYLQADGSYFYDKLSQLDLSAQWPLTRNLSAVVRYNYGFEAKKPIEMLAGAEYKSSCGCWGAGVYAQRYVTGENTYKNAVFFSLQLKDLSSVGRNPAGRMDVAVPGYIPAHSLSAGRNKRP
notes: LptD of N. gonorrhoeae, wild-type full length, UniProt Q5F651; The LptD chain of m1; source: E. coli SF100, co-expressed with LptE, purified as the NgLptDE complex (NiNTA, SEC, LMNG)
In the case of B3, the binding result in data set [2] was “binds”.

In general, stoichiometry N refers to a count of units in the complex or per binding partner.
